Data set [1] has as its system EphA2 having Myc-labeled C-terminal.
Data set [2] relates to processing-resistant EphA2 mutant (EphA2 deleted at a site to be processed by MT1-MMP, FLAG-labeled C terminal).
Data set [3] has as its target E-cadherin (UniProt P12830).
The subject of data set [4] is EphA2 (full-length type EphA2).

Chain of E-cadherin (P12830 155-882): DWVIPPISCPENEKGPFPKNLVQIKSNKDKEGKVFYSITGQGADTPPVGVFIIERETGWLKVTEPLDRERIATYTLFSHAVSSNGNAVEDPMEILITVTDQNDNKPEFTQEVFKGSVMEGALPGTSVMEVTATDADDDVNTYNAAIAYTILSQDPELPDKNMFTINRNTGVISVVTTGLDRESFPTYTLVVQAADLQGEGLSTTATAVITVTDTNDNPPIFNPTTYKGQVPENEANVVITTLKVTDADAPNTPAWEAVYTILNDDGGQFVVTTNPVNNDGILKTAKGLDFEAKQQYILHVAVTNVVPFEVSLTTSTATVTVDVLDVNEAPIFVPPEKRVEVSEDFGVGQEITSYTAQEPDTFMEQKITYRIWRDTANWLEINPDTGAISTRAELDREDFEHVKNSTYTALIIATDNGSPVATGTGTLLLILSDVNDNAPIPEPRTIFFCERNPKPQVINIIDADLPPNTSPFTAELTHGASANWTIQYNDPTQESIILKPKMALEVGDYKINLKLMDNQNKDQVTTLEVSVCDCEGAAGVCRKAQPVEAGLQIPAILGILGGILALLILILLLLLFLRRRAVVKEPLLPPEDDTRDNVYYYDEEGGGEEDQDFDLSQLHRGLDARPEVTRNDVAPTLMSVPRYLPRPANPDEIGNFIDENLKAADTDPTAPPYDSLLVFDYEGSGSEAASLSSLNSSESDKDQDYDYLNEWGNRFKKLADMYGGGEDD

Turning to MT2-MMP, the “EphA2 processed fragment, western blotting” value in data set [1] is given as “a processed fragment of EphA2 (small arrow) was detected only in the MT1-MMP-introduced cells”.

With MT3-MMP, the “EphA2 processed fragment, western blotting” value in data set [1] is “a processed fragment of EphA2 (small arrow) was detected only in the MT1-MMP-introduced cells”.

On to MT5-MMP, for which the “EphA2 processed fragment, western blotting” value in data set [1] was “a processed fragment of EphA2 (small arrow) was detected only in the MT1-MMP-introduced cells”.

For “membrane type-1 matrix metallproteinase (MT1-MMP), expressed in cells”, the “processed state of EphA2, western blotting” value in data set [2] is “the mutant deleted at a cleavage site showed resistance against processing by MT1-MMP”. The “processing of E-cadherin, western blotting” value in data set [3] is recorded as “presence or absence of MT1-MMP expression caused no change in the processing of E-cadherin”. In addition, the “EphA2 processed fragments, western blotting with Myc antibody” value in data set [1] was “full-length type EphA2 (large arrow) and respective EphA2 processed fragments (small arrow) having a molecular weight of 65 and 60 kDa were detected”. Moreover, the “65-kDa and 60-kDa processed fragments of EphA2 after MT1-MMP knockdown, IP-western” value in data set [4] is “Due to MT1-MMP knockdown, the 65-kDa and 60-kDa processed fragments of EphA2 disappeared”.

(Values after US20190064149.)
